Source: paper PMC7511963 (NPJ Vaccines, 2020)

T1: HPV16 L1L2 pseudovirus (Human papillomavirus type 16, L1 …)
T1 construct: also called HPV16 PsV; HPV16 PsVs; copies: 360 +
T1 chain: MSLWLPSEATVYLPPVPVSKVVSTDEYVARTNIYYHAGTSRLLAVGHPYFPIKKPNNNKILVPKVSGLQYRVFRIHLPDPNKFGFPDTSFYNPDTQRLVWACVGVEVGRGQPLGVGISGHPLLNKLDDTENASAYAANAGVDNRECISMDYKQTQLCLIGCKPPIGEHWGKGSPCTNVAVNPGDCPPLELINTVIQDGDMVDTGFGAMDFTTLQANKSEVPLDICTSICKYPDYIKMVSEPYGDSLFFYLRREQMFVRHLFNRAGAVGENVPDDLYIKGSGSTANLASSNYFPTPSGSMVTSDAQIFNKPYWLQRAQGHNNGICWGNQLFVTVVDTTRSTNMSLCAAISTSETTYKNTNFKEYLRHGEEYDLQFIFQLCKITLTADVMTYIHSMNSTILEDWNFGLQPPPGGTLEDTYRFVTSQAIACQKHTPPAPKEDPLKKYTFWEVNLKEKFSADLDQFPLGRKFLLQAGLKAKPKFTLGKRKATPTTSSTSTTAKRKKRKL

B1: rabbit monoclonal antibody H16.001 (antibody, V domains shown)
VH: QSVKESEGRLVTPGTPLTLTCTASGFTMSRYHMTWVRQAPGKGLEWIGIIYARNSDTYYANWAKGRFTISKTSTTVDLKITSPTIEDTATYFCARVDSDSSGAFDRLDLWGQGTLVTVSS
VL: DPMLTQTAASVEVAVGGTVTIKCQASQSIGGYLSWYQQKPGQRPKLLIYRASTLASGVPSRFKGSGSGTEYTLTFSGVECADAAAYYCQQGYTSSDINNAFGGGTEVVVK
B2: H16.001 Fab (Fab, V domains shown)
VH: QSVKESEGRLVTPGTPLTLTCTASGFTMSRYHMTWVRQAPGKGLEWIGIIYARNSDTYYANWAKGRFTISKTSTTVDLKITSPTIEDTATYFCARVDSDSSGAFDRLDLWGQGTLVTVSS
VL: DPMLTQTAASVEVAVGGTVTIKCQASQSIGGYLSWYQQKPGQRPKLLIYRASTLASGVPSRFKGSGSGTEYTLTFSGVECADAAAYYCQQGYTSSDINNAFGGGTEVVVK
notes: also called Fab H16.001; H16.001 Fabs

Legend:
[1] = target: HPV16 L1L2 pseudovirus (human papillomavirus type 16) (UniProt P03101)
HPV16 L1L2 pseudovirus = target: T1, HPV16 L1L2 pseudovirus; assay: cryo-EM structure; conditions: both partners purified

Binder	PsV-based neutralization assay on 293FT cells: IC50, the antibody concentration required to block viral entry by 50% [1] [ng/mL]	stoichiometry N (HPV16 L1L2 pseudovirus) [Fabs per capsid]
B1	0.4	
B2		360
